Data as given in ChEMBL document CHEMBL1145552, “Substrate specificity and diastereoselectivity of strictosidine glucosidase, a key enzyme in monoterpene indole alkaloid biosynthesis” (Bioorg Med Chem Lett, 2008).

Columns and labels:
[1] = target: T1, Strictosidine beta-glucosidase (Catharanthus roseus) (UniProt Q9M7N7); experiment: Ratio of relative Vmax to K0.5 of Catharanthus roseus strictosidine glucosidase
T1 sequence (whole entry): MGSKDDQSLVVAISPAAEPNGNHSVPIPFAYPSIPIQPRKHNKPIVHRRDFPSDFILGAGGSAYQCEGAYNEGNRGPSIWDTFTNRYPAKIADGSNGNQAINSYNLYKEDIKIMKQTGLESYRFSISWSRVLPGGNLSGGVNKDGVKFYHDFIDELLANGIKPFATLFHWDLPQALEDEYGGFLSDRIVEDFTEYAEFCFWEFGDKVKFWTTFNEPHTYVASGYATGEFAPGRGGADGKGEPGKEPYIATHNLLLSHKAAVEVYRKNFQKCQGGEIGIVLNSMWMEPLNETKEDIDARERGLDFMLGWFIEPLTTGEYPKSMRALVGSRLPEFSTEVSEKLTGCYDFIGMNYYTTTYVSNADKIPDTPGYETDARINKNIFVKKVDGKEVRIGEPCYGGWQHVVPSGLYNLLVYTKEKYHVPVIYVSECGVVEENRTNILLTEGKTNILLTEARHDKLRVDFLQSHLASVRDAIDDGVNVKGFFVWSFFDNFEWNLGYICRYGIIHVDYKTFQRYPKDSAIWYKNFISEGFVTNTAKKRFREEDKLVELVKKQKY

[2] = substrate: C=C[C@H]1[C@H](O[C@@H]2O[C@H](CO)[C@@H](O)[C@H](O)[C@H]2O)OC=C(C(=O)OC)[C@H]1C[C@@H]1NCCc2c1[nH]c1cc(C)ccc21; experiment: (§1) Activity of Catharanthus roseus strictosidine glucosidase
[3] = substrate: C=C[C@H]1[C@H](O[C@@H]2O[C@H](CO)[C@@H](O)[C@H](O)[C@H]2O)OC=C(C(=O)OC)[C@H]1C[C@@H]1NCCc2c1[nH]c1c(C)cccc21; experiment: as §1
[4] = substrate: C=C[C@H]1[C@H](O[C@@H]2O[C@H](CO)[C@@H](O)[C@H](O)[C@H]2O)OC=C(C(=O)OC)[C@H]1C[C@@H]1NCCc2c1[nH]c1cc(F)ccc21; experiment: as §1
[5] = substrate: C=C[C@H]1[C@H](O[C@@H]2O[C@H](CO)[C@@H](O)[C@H](O)[C@H]2O)OC=C(C(=O)OC)[C@H]1C[C@@H]1NCCc2c1[nH]c1cc(OC)ccc21; experiment: as §1
[6] = substrate: C=C[C@H]1[C@H](O[C@@H]2O[C@H](CO)[C@@H](O)[C@H](O)[C@H]2O)OC=C(C(=O)OC)[C@H]1C[C@@H]1NCCc2c1[nH]c1cccc(C)c21; experiment: as §1
[7] = substrate: C=C[C@H]1[C@H](O[C@@H]2O[C@H](CO)[C@@H](O)[C@H](O)[C@H]2O)OC=C(C(=O)OC)[C@H]1C[C@@H]1NCCc2c1[nH]c1ccc(F)cc21; experiment: as §1
[8] = substrate: C=C[C@H]1[C@H](O[C@@H]2O[C@H](CO)[C@@H](O)[C@H](O)[C@H]2O)OC=C(C(=O)OC)[C@H]1C[C@@H]1NCCc2c1[nH]c1ccc(C)cc21; experiment: as §1
[9] = substrate: C=C[C@H]1[C@H](O[C@@H]2O[C@H](CO)[C@@H](O)[C@H](O)[C@H]2O)OC=C(C(=O)OC)[C@H]1C[C@@H]1NCCc2c1[nH]c1ccc(OC)cc21; experiment: as §1
[10] = substrate: C=C[C@H]1[C@H](O[C@@H]2O[C@H](CO)[C@@H](O)[C@H](O)[C@H]2O)OC=C(C(=O)OC)[C@H]1C[C@@H]1NCCc2c1[nH]c1ccccc21; experiment: as §1

C=C[C@H]1[C@H](O[C@@H]2O[C@H](CO)[C@@H](O)[C@H](O)[C@H]2O)OC=C(C(=O)OC)[C@H]1C[C@@H]1NCCc2c1[nH]c1cc(C)ccc21
Ratio [1]: 0.5 min⁻¹

C=C[C@H]1[C@H](O[C@@H]2O[C@H](CO)[C@@H](O)[C@H](O)[C@H]2O)OC=C(C(=O)OC)[C@H]1C[C@@H]1NCCc2c1[nH]c1c(C)cccc21
Ratio [1]: 0.3 min⁻¹

C=C[C@H]1[C@H](O[C@@H]2O[C@H](CO)[C@@H](O)[C@H](O)[C@H]2O)OC=C(C(=O)OC)[C@H]1C[C@@H]1NCCc2c1[nH]c1cccc(C)c21
Ratio [1]: 0.2 min⁻¹

C=C[C@H]1[C@H](O[C@@H]2O[C@H](CO)[C@@H](O)[C@H](O)[C@H]2O)OC=C(C(=O)OC)[C@H]1C[C@@H]1NCCc2c1[nH]c1cc(F)ccc21
Ratio [1]: 0.7 min⁻¹

C=C[C@H]1[C@H](O[C@@H]2O[C@H](CO)[C@@H](O)[C@H](O)[C@H]2O)OC=C(C(=O)OC)[C@H]1C[C@@H]1NCCc2c1[nH]c1ccc(OC)cc21
Ratio [1]: 0.3 min⁻¹

C=C[C@H]1[C@H](O[C@@H]2O[C@H](CO)[C@@H](O)[C@H](O)[C@H]2O)OC=C(C(=O)OC)[C@H]1C[C@@H]1NCCc2c1[nH]c1ccccc21
Ratio [1]: 1 min⁻¹

C=C[C@H]1[C@H](O[C@@H]2O[C@H](CO)[C@@H](O)[C@H](O)[C@H]2O)OC=C(C(=O)OC)[C@H]1C[C@@H]1NCCc2c1[nH]c1cc(OC)ccc21
Ratio [1]: 0.2 min⁻¹

C=C[C@H]1[C@H](O[C@@H]2O[C@H](CO)[C@@H](O)[C@H](O)[C@H]2O)OC=C(C(=O)OC)[C@H]1C[C@@H]1NCCc2c1[nH]c1ccc(C)cc21
Ratio [1]: 0.6 min⁻¹

C=C[C@H]1[C@H](O[C@@H]2O[C@H](CO)[C@@H](O)[C@H](O)[C@H]2O)OC=C(C(=O)OC)[C@H]1C[C@@H]1NCCc2c1[nH]c1ccc(F)cc21
Ratio [1]: 0.7 min⁻¹

B1: Strictosidine beta-glucosidase (Catharanthus roseus), Q9M7N7 (protein)
chain: MGSKDDQSLVVAISPAAEPNGNHSVPIPFAYPSIPIQPRKHNKPIVHRRDFPSDFILGAGGSAYQCEGAYNEGNRGPSIWDTFTNRYPAKIADGSNGNQAINSYNLYKEDIKIMKQTGLESYRFSISWSRVLPGGNLSGGVNKDGVKFYHDFIDELLANGIKPFATLFHWDLPQALEDEYGGFLSDRIVEDFTEYAEFCFWEFGDKVKFWTTFNEPHTYVASGYATGEFAPGRGGADGKGEPGKEPYIATHNLLLSHKAAVEVYRKNFQKCQGGEIGIVLNSMWMEPLNETKEDIDARERGLDFMLGWFIEPLTTGEYPKSMRALVGSRLPEFSTEVSEKLTGCYDFIGMNYYTTTYVSNADKIPDTPGYETDARINKNIFVKKVDGKEVRIGEPCYGGWQHVVPSGLYNLLVYTKEKYHVPVIYVSECGVVEENRTNILLTEGKTNILLTEARHDKLRVDFLQSHLASVRDAIDDGVNVKGFFVWSFFDNFEWNLGYICRYGIIHVDYKTFQRYPKDSAIWYKNFISEGFVTNTAKKRFREEDKLVELVKKQKY
Km [2]: 92 µM | Vmax [2]: 0.017 mM/min | Km [3]: 140 µM | Vmax [3]: 0.016 mM/min | Km [4]: 120 µM | Vmax [4]: 0.032 mM/min | Km [5]: 430 µM | Vmax [5]: 0.037 mM/min | Km [6]: 220 µM | Vmax [6]: 0.018 mM/min | Km [7]: 150 µM | Vmax [7]: 0.038 mM/min | Km [8]: 71 µM | Vmax [8]: 0.016 mM/min | Km [9]: 370 µM | Vmax [9]: 0.035 mM/min | Km [10]: 220 µM | Vmax [10]: 0.078 mM/min
